Results taken from the supplement of paper PMC10567573.

B1: HSP90AB1 (parent)
chain: YHTSQSGDEMTSLSEYVSRMKETQ

Variants of: B1
Experiment: protein stability index of a GFP-peptide fusion (GPS, HEK-293T) (PSI 1-6); higher = more stable
Details: c terminus: a fixed tail appended
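Further: lentivirally expressed fusions sorted by FACS into six bins by GFP to DsRed ratio, PSI derived from sequencing read proportions per bin multiplied by bin number.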

Protein stability index: each site, then its substitutions
S6: I 2.98 | D 4.53 | L 3.26 | E 4.15 | A 3.54 | K 3.03 | V 3.21 | R 3.56 | T 3.46 | F 2.54 | H 2.91 | G 3.75 | Y 2.06 | Q 2.83 | N 4.08
E15: P 1.87 | Y 2.65 | H 2.96 | D 3.02 | A 2.6 | W 1.48 | V 1.89 | F 1.99 | Q 3.15 | S 2.87 | L 1.99 | N 3.77 | I 2.37
D8: W 2.17 | E 4.24 | K 3.24 | H 2.92 | Q 3.69 | V 3.47 | P 3 | N 3.33 | C 2.58 | L 3.31 | F 3.44 | I 2.32 | T 3.24 | G 2.89
M20: W 2.47 | H 4.16 | D 4.46 | G 4.37 | E 3.73 | V 3.92 | N 4.1 | T 4.27 | L 3.42 | C 3.81 | Y 3.55 | A 4.62 | K 4.11 | P 4.44
S18: E 3.8 | Q 3.66 | T 3.81 | G 3.36 | M 3.41 | P 3.92 | H 3.35 | Y 2.56 | I 3 | D 4 | A 3.72 | N 3.31 | R 3.6 | L 2.74 | K 3.53
E9: I 2.77 | G 3.67 | Q 3.43 | H 3.11 | F 2.33 | A 2.78 | R 1.99 | V 3.12 | L 2.09 | D 3.79 | S 2.91 | C 2.48
S14: Y 3.11 | Q 3.54 | K 3.5 | F 3.05 | V 3.37 | C 3.44 | A 3.66 | E 4.31 | W 1.81 | G 3.78 | T 3.71 | N 3.24 | M 3.25 | P 3.74 | D 2.96
Y16: T 4.02 | K 3.53 | L 3.41 | A 4.17 | D 4.74 | R 3.98 | M 4.16 | W 2.69 | N 4.3 | S 4.22 | G 4 | I 3.09 | H 4.1 | Q 4.17 | V 3.79 | P 4.02 | E 4.37
S4: L 2.48 | T 3.99 | N 3.39 | K 2.07 | G 3.02 | E 4.38 | M 3.61 | H 3.38 | C 3.56 | Y 2.21 | A 3.86
G7: L 3.61 | W 2.99 | N 2.83 | A 3.73 | H 3.65 | T 4.32 | I 3.29 | F 3.17 | V 3.26 | Q 3.78 | P 3.74 | D 4.08 | E 4.12
V17: G 3.76 | H 3.54 | Y 3.33 | R 4.27 | Q 4.04 | L 3.56 | S 3.87 | A 3.85 | P 3.86 | C 3.27 | T 3.72 | N 4.12 | I 3.22
M10: D 4.68 | Y 3.2 | P 4.17 | S 3.87 | A 4.01 | W 2.12 | K 4.04 | H 3.46 | F 3.06 | I 4.08 | V 3.74 | N 4.17 | G 4.1 | E 4.54 | R 3.9 | L 3.32
Y1: T 5.02 | H 4.97 | P 5.09 | F 3.68 | K 4.29 | R 4.14 | D 4.48 | C 4.49 | N 4.77 | Q 4.61 | V 4.81 | L 4.84 | G 4.26 | S 4.67 | A 4.7
T11: H 3.64 | N 3.56 | M 3.07 | G 3.77 | K 4.58 | F 2.78 | S 3.62 | P 3.57 | E 3.9 | I 3.12 | L 3.35 | C 3.62 | Y 2.74
T23: P 3.33 | N 3.88 | S 3.5 | Q 3.9 | R 3.76 | D 4.52 | K 3.78 | G 4.12 | Y 3.16 | W 2.79 | L 3.57 | C 3.23 | I 3.63 | A 3.81
Q5: F 2.35 | A 3.66 | P 3.34 | R 3 | C 3.17 | N 3.39 | D 4.45 | W 1.98 | T 3.91 | I 2.64 | H 3.67 | L 2.83 | Y 3.21 | S 3.55 | G 3.84 | M 3.67 | E 3.79
T3: I 3.18 | R 3.8 | A 3.26 | N 3.42 | M 3.12 | P 2.81 | K 3.48 | E 3.07 | S 3.58 | Q 3.66 | W 1.53 | V 2.96 | F 2.96
L13: M 4.04 | E 4.62 | N 4.34 | F 2.18 | K 3.82 | T 4.25 | P 3.74 | I 3.5 | Q 4.59 | C 3.52 | V 3.32 | Y 3.38 | D 4.11
K21: R 3.29 | P 3.63 | M 3.13 | G 3.84 | F 2.84 | S 3.35 | E 4.2 | H 3.52 | T 3.42 | L 3.52 | N 3.88 | W 2.64
E22: H 3.05 | S 3 | T 3.67 | Y 3.44 | P 3.17 | A 3.07 | V 4.22 | C 4.17 | N 3.84 | D 3.83 | Q 3.94 | F 3.71 | I 3.89
S12: P 3.52 | I 2.92 | K 3.12 | N 3.64 | F 2.98 | T 3.88 | V 2.99 | W 2.6 | G 3.75 | D 4.14 | A 3.21 | E 4.28
R19: V 3.67 | K 4.27 | T 4.18 | E 4.66 | D 4.41 | A 3.72 | M 3.89 | I 3.66 | N 4.32 | F 3.15 | Q 4.15 | Y 3.7 | H 3.68 | L 3.22 | P 3.47
Q24: D 4.06 | S 3.61 | I 3.05 | C 3.18 | N 3.62 | A 3.26 | V 3.19 | Y 3.1 | G 3.52 | L 2.98 | E 3.94 | T 3.64 | M 3.2
H2: N 3.92 | F 4.26 | V 2.83 | M 3.61 | K 4.66 | C 3.57 | D 4.45 | E 4.56 | P 5 | T 4.67 | L 4.15 | G 4.62 | S 4.42 | I 3.46 | Q 3.94 | A 2.87
